The record followed here is US20230331840A1 (published 2023).

The target in assay [1] is T1, Human CD22 extracellular segment conjugated His label (human, UniProt P20273 20-687). Briefly: ELISA. A general note: In an ELISA, binding on a coated surface is turned into a signal by an enzyme label.
For assay [2], the target named is T1, Human CD22 extracellular segment …. In words: BLI (Fortebio).
For assay [3], the target named is K562-CD22 (UniProt P20273 20-847). In words: FACS binding.

B1: CD22 antibody FC2-203 (antibody, V domains shown)
VH: QVQLQQPGAELVRPGASVKLSCKASGYTFSSYWINWVKQRPGQGLEWIGNIYPSDSYTNYNQKFKDKATLTVDKSSSTAYMQLSSPTSEDSAVYYCTREGHYYGSFGAMDYWGQGTSVTVSS
VL: DVQITQSPSYLAASPGETITINCRASKTISKYLAWYQEKPGKTNKLLIYSGSTLQSGIPSRFSGSGSGTDFTLTISSLEPEDFAMYYCQQHNEYPWTFGGGTKLEIKR
In assay [1], B1 came in with an EC50 of 0.457 nM. In addition, in assay [2], binding was characterised by a dissociation constant (Kd) of 7.08 nM.

B2: RFB-4 (antibody, V domains shown)
VH: EVQLVESGGGLVKPGGSLKLSCAASGFAFSIYDMSWVRQTPEKRLEWVAYISSGGGTTYYPDTVKGRFTISRDNAKNTLYLQMSSLKSEDTAMYYCARHSGYGSSYGVLFAYWGQGTLVTVSA
VL: DIQMTQTTSSLSASLGDRVTISCRASQDISNYLNWYQQKPDGTVKLLIYYTSILHSGVPSRFSGSGSGTDYSLTISNLEQEDFATYFCQQGNTLPWTFGGGTKLEIK
In assay [3], B2 came in with an EC50 of 0.632 nM.

B3: CD22 antibody FC2-153 (antibody, V domains shown)
VH: QVQLQQSGAELMKPGASVKISCKATGYTFSSYWIEWVKQRPGHGLEWIGEILPGSGSTNYNEKFKGKATFTADTSSNTAYMQLSSLTSEDSAVYYCARWGQLGLFYAMDYWGQGTSVTVSS
VL: DIQMTQSPASLSASVGETVTITCRASENIYSYLAWYQQKQGKSPQLLVYNAKTLAEGVPSRFSGSGSGTQFSLKINSLQPEDFGSYYCQHHYGSPLTFGAGTKLELKR
As to B3, the EC50 in assay [1] stood at 0.145 nM. In assay [2], this molecule yielded a Kd of 0.92 nM.

B4: CD22 antibody FC2-070 (antibody, V domains shown)
VH: QVQLQQPGAELVKPGTSVKLSCKASGYNFTSYWINWVKLRPGQGLEWIGDIYPGSGNTNYNEKFKSKATLTVDTSSTTAYMQLSSLASEDSALYYCARRGYLDYWGQGTTLTVSS
VL: DIQMTQSPASLSASVGETVTITCRASGNIHNYLAWYQQKQGKSPQLLVYNAKTLADGVPSRFSGSGSGTQYSLTINSLQPEDFGSYYCQHFWSTPLTFGAGTKLELKR
In assay [1], B4 had a concentration for a half-maximal effect (EC50) of 0.154 nM. This molecule also came in with an equilibrium dissociation constant (Kd) in assay [2] of 0.569 nM.

B5: CD22 antibody FC2-201 (antibody, V domains shown)
VH: KVQLQQSGAGLVKPGASVKLSCKASGYTFTDSILHWLMQRSGQGLEWIGWFYPGSGSIKYNEKFKDKATLTADKSSSTVYMELSRLTSEDSAFYFCARHEDGYDGFAYWGQGTLVTVSA
VL: ENVLTQSPAIMSASLGEKVTMSCRASSSVNYIFWYQQKSDASPKLWIYYTSNLAPGVPARFSGSGSGNSYSLTISSMEGEDAATYYCQQFTSSPFTFGSGTKLEIKR
Regarding B5, in assay [1], a half-maximal response (EC50) required 0.096 nM. In assay [2], this molecule yielded a Kd of 0.0722 nM.

B6: CD22 antibody FC2-117 (antibody, V domains shown)
VH: DVQLQESGPGLVKPSQSLSLTCSVTGYSITSGYYWNWIRQFPGNKLEWMGYISYDGSNNYNPSLKNRISITRDTSKNQFFLKLNSVTTEDTATYYCTKGGYGYYFDYWGQGTTLTVSS
VL: DIQMTQSPASLSASVGETVTITCRASGNIHNYLAWYQQKQGKSPQLLVYNAKTLADGVPSRFSGSGSGTQYSLKINSLQPEDFGSYYCQHFWSTPPTFGGGTKLEIKR
As for B6, a half-maximal effect in assay [1] (EC50) was put at 0.629 nM. This molecule came in with a Kd in assay [2] of 2.73 nM.

By EC50 is commonly meant the concentration giving half of the maximal effect. Lower therefore signals an effect from little substance. For orientation: Kd means the free concentration of one partner at which half of the binding sites on the other are occupied at equilibrium, for simple one-to-one binding.
